Measured values: the nanobody polyreactivity screen of Harvey et al. (2022)

Assay: yeast display, Sf9 membrane polyspecificity reagent, FACS + sequencing; frameworks hold sequencing errors
Summary of the method: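 Galactose-induced (36–48 hours) yeast carrying a synthetic nanobody display library were exposed to 10% biotinylated, detergent-solubilized Sf9 membrane reagent at 4 °C for 1 hour. FACS followed streptavidin microbead enrichment, using low and high (top ~1%) gates for expression (anti-HA) and reagent binding (streptavidin). Colony PCR, MiSeq 2 × 250 sequencing and CDR-length filtering followed. Labels for polyreactivity reflect the gate of origin.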

Sequence | polyreactivity (PSR sort gate)
QVQIEESGGGLDQAGGSLRLTCAASGFTIPSYTRGWYRQAPGKERELVAAISRSDGTTYYAYSVKGRFTISRDNAKNSVYLQLNSLKPEDTAVYYCNKAYKRYGYHYDYWGQGTQVTVSS | high polyreactivity
QVQLVESGGGLVQAGGSLRLSCAASGSTSGSYGMGWYRQAPGKERELVAAIRISGDSTYYADSVKGRFTISRDNAKNTVYLQMNSLKPEDTAVYYCAAEAFFWYYGWYDYWGQGTQVTVSS | high polyreactivity
QVQLVESGGGLVQAGGSLRLSCAASGGTFDWNTMGWYRQAPGKERELVASITSGGRTNYAASVKGRFTISRDNAMNPVYLQLNSLKPEDTAVYYCANYPRSAYPWQTWVGQKFDYWGQGTQVTVSS | low polyreactivity
QVQLVESGGGLVQAGGSLRLSCAASGFIFPVNAMGWYRQAPGKERELVAGISRGGRTNYADSVKGRFTISRDNAKYSVYLQMNSLKPEDTAVYYCAAESYRAYKYDSWGQGTQVTVSS | low polyreactivity
QDQLVESAGGLVQAGGSLRLSCAASARIFRYNAIGCYRQGPGKERVLVASITSAGSTNYADSVKGRFTISRDNAKNTVYLQMNSLKPEDTAVYYCNKRRAYGYYLFDYWGLGTQVTVSS | high polyreactivity
QVQLVESGGGLVQAGGSLRLSCAASGSTFSYNAMGWYRQAPGKERELVAAITSRGGSTRYADSVKGRFTISRDNAKNTVYLQMNSLKPEDTAVYYCARPYSYYPYSTVNYWGQGTQVTVSS | high polyreactivity
QVQLVESGGGIVQAGGSLRLSCAASGLTFWPYAMGWYRQARGKERELVAAISYNSGRTYYADSVKGRFTISRDNAKNTVYLQMNSLKPEDTEVYYCAVEWSLSRYYYWGQGTQVTVSS | high polyreactivity
QVQLVESGGGLVQAGGSLRLSCAASGNTFYKYAMGWYRQAPGKERELVADISWSGGSTYYADSVKGRFTISRDNAKNTVYLQMNSLKREDTAVYYCNADTPVWDGHAYPVDYWGQGTQVTVSS | low polyreactivity
QVQLVESGGGLVQAGGSLRLSCAASGRIFPGKAMGWYRQAPGKEREFVASINWSRGSTFYADSVKGRFTISRDNAKNTVYLQMNRLIPEDTAVYYCSARTFGYYRSRSYNYWGQGTQVTVSS | high polyreactivity
QVQLVESGGGLVQAGGSLRLSCAASGNIFRSYMGWYRQAPGKERELVASISRRGGSTYYADSVKGRFTISRDNAKNTVYLQMNSLKPEDTAVYYCARRWSWVNGVFGYYWGQGTQVTVSS | high polyreactivity
QVQLVESGGGLVQAGGSLRLSCAASGRIFAYYAMGWYRQAPGKERELGATITGGGDRTYYADSVKGRFTISRDNAKNTVYLQMNSLKPEDTAVYYCNARVWYYSPYYYWGQRTQVTVSS | low polyreactivity
QVHLVESGGGLVQAGGSLRLSCDASGSIFPVNAMGWYRQAPGKERELVATITWRGGRTYYADSVKGRFTISRDNAKNTVYLQMNSLKPEDTAVYYCAARLLYRHFGYWGQGTQVTVSS | high polyreactivity
QVQLVESGGGLVQAGGSLRLSCAASGSTFHTNAMGWYRQAPGKERELVDAISRSGTSTYYADSVKGRFTISRDNAKNSVYCQMNSLNPEDTAVYYCAAYGPRVNGEIGREYYYWGQGTQVTVSS | low polyreactivity
QVQLVDSGGGLVQAGGSLRLSCAASGRTFYAYAMGWYRQAPGKERELVATISSSDASTYYADSVKGRFTISRDNAKKTVYLLMNSLKPEDTAVYYGNADFVRPSWARGRNNGLYYWGQGTQVTVSS | low polyreactivity
QVQLVESGGGLVQAGGSLRLSCAASGSTFYYYAMGWYRQAPGKERELVAAISNRDGRTYYADSVKGRFTISRDNAKNTVYLQMNSLKPEDTAVYYCNAYSYGHYYWGQGTQVTVSS | high polyreactivity
QVQLVESGGGLVQAGGSLRLSCAASGSTSYDYAMGWYRQAPGKERELVAAISRRGGSTYYADSVKGRFTISRDNAKNTVYLQMNSLKPEDTAVYYCAARSYSYLGWFSYDYWGQGTQVTVSS | low polyreactivity
QVQLVESGGGLVQAGGSLRVSCAASGRTFRSYAMGWYRQAPGKERELVAAIRRGGSTNYADSVKGRFPISRDNAKYTVYLQMNSLKPEDTAVYYCAARYTRWRYNYKDYDYWGQGTQVTVSS | high polyreactivity
QVQLVESGGGLVQAGGSLRLSCAASGLIFENNAMGWYRQAPGKERELVAAITKGGGSTYYADSVKGRFTISRDNAMNTVYLQMNSLKPEDTAVYYCAKVHPWHRYWQYWYDYWGQGTQVTVSS | low polyreactivity
QVQLVESGGGLVQAGGSLRLSCAASGRILHGYAMGWYRQAPGKERELVAAITSSGGRTYYADSVKGRFPISRDNAKNTVYLQMISLKPEDTAVYYCAADRPAYRTGDSKYDYWGQGTQVTVSS | low polyreactivity
QVQLVESGGGLVQAGGSLRLSCAASGRTFYRYAMGWYRQAPGKERELVATINWTSGSTNYADSVKGRFTISRDNAKNTVYLQMNSLKPEDTAVYYCAARGPVGYGWRYRPWHDYWGQGTQVTVSS | high polyreactivity

Sequence | polyreactivity (PSR sort gate)
QVQLVESGGGLVQAGGSLRLSSAASGSIFGDYAMGWYRQSPGKERELVAAISSDGSTNYADSVKGRFTISRDNAKNTVYLQMNSLKPEDTAVYYCAADTGGWYFYSYYYWGQGTQVTVSS | low polyreactivity
QVQLVESGGGLVQAGGSRRLSCAASGSTFRYNTMGWYRQAPGKERDLVAAITGGGGSTYYADSVKGRFTISRDNAKNTVYLQMNSLKPEDTAVYYCAKRHWYDCYVSSYTTRYDYWGQGTQVTVSS | low polyreactivity
QVQLVESGGGLVQAGGSLRLSCAASGSTFNKNAMGWYRQAPGNERELVAVISRSGGSTHYADSVKGRFTISRDNAKNTVYLQMNSLKPEDTAVYYCATPFSYRRRTSASPYLYDYWGQGTQVTVSS | high polyreactivity
QVQLVESGGGLVQAGGSLRLSCAASGSTFSYNTMGWYRQAPGKERELVATISSSSGSTTYADSVKGRFTISRDIAKNTVYLQINSLKPEDTAVYYCNVDDPFYSGVVEFDYWGQGTQVTVSS | low polyreactivity
QVHLVESGGGLVQAGGSLRLSCSASGRTFPYNAMGWYRQSPGKERELVAAISWRGGSTYYADSVKGRFTISRDNAKNTVYLQMNSLKPEDTAVYYCNALYPVSYDHRGDYWGQGTQVTVSS | high polyreactivity
QVQLVESGGGLVQAGGSLRLSCAASGGIFYSYAMGWYRQAPGKERELVAALSRGSRTYYADSVKGRFTISRDNAKNTVYLQMNSLKPEDTAVYYCAAYIVGSYRDGYWGQGTQVSVSS | high polyreactivity
QVQLVESGGGLVQAAGSLRLSCAASGSIFGVNVMGWYRQAPGKERELVAAITTSGGSTYYADSVKGRFTISRDNAKNTVYLQMNSLKPEDTAVYYCAAEVYYPIFLTFYYRGQGTQVTVSS | high polyreactivity
QVQLVESGGGLVQAGGSLRLSCAASGRIFRDYGMGWYRQAPGKERELVAAINTSGRTYYADSVKGRFTISRDNAKNTVYLQMNSLKPEDTAVYYCATTSRELGELRIFDYWGQGSQVTVSS | low polyreactivity
QVQLVESGGGLVQAGGSLRLSCAASGRTFWSYAMGWYRQAPGKEREFVAAISRRGGITYYADSVKGRFTLSRDNAKNTVYLQMNSLKPEDTAVYYCAKGAQSYYGGQVKYDYWGQGTQVTVSS | high polyreactivity
QVQLQESGGGLVQAGGSLRLSCAASGNIVVADIMGWYRQAPGKERELVASITDGGSTNYADNVKGRFTISRDNAKNTVYLQMNSLIPEDTAVYYCAANAFPDIPTYFVYDYDYFYWGQGTQVTVSG | high polyreactivity
QVQLVESGGGLVQAGGSLRLSCAASGITFRYYAMGWYRQAPGKERELVAVITYSGSRTYYADSVKGRFTISRDNAKNTVYLQMNSLKPEDTAVYYGATKGAKRVIGETAYDYWGQGTQVTVSS | high polyreactivity
QVQLEESGGGLVQAGGSLRLSCAASGFTFDVYAMGWYRQAPGKERELVAAIDSGGSTNYADSVKGRFTISRDNAKNTVYLQMNSLKPEDTAVYYCAVRYWKTLSHFSYDYWGQGTQVTVSS | low polyreactivity
QVQLVESGGGLVQAGGSLRLSCAASGSTFEYYAMGWYRQAPGKERELVATITFGGGSTYYADSVKGRFTISRDNAKNTVYLQMNSLKPEDTAVYYCAADSGYLGIYGDEYSWGQGTQVTVSS | low polyreactivity
QVQLVESVGGLVQAGGSLRLSCAASGSTFALNAMGWYRQAPGKERELVAAISYSGGSTYYADSVKGRFTISRDNAKNTVYLQINSLKPDDTAVYYCNAEVYFSGWVLYYYWGQGTQVTVSS | high polyreactivity
QVQLVDSGGGLDQAGGSLRLICDASGSIFWWNAMGWYRQAPGKETELVAAINWSTGRTYYADSVKGRFTISRDNAKNTVYLQMNSLKPEDTAVYYCGADVWTPYLISLKSGYDYWGQGTQLTVSS | low polyreactivity
QVQLVESGGGLVQAGGSLRLSCAASGFIFLGNAMGWYRQAPGKERELVAAISSGGSTYADSVKGRFTISRDNAKNTVYLQMNSLKPEDTAVYYCAVDRAFRAQNYHEYDYWGQGTQVNVSS | low polyreactivity
QVQLVESGGGLVQAGGSLRLSCAASGSTFVWYAKGWYIQAPGKERELVAAINFGGTTYYADSVKGRFTISRDNAKNTVYLQMNSLKPEETAVYYCATEYDYGSWFPDGWGIFDYWGQGTQVTVSS | low polyreactivity
QDQLVESGGGLVQAGGSLRLSCAASGRTFEGNAMGWYRQAPGKERELVAAITSGGRTNYADSVKGRFTISRDNAKNTVYLQMNSLKPEDTEVYYCANVYRSIGPNVSRYGLSYYYWGQGTQVTVSS | low polyreactivity
QVQRVESGGGLVQAGGSLRLSCAASGSIFASNAMGWYRQAPGKERELVADISGTTGSTYYADSVKGRFTISRDNAKNTVYLQMNSLKPEDTAVYYCAADLVWVSTSYYYWGQGTQVTVSS | low polyreactivity
QVQLVESGGGLVQAGGSLRLSCAASGIIFNTYAMGWYRQAPGKERELVAAIDSRDASTYADSVKGRFTISRDNAKNTVYVQMNSLKPEDTAVYYCNARIESYWLDFDYWGQGTQVTVSS | low polyreactivity
